Measured values as given in patent US6225451.
pKd: −log10 of the molar value.

System: T1, CHD1.ZnF3-8 (CHD1 zinc fingers 3 through 8) (Homo sapiens)
T1 sequence: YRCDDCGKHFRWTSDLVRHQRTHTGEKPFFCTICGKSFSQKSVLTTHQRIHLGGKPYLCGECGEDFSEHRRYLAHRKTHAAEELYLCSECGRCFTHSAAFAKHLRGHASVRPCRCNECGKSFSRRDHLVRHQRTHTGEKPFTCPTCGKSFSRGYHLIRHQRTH
Assay: EMSA
Conditions: apparent, upper limit from protein dilution; poly d(I:C) does not compete

ApoAIV promoter fragment -573 to -165 was tested. Which pKd did it give?
The pKd was 8.00.
